Assays:
[1] = target: T1, 重组SARS-CoV-2刺突蛋白胞外区 (extra cellular domain of spike protein, S-ECD) (SARS-CoV-2), P0DTC2; test: indirect ELISA, S-ECD coated at 1μg/ml; conditions: remark: other sources report otherwise
[2] = target: T1, 重组SARS-CoV-2刺突蛋白胞外区 (extra cellular …); test: SPR, Biacore 8K, S-ECD immobilised on a CM5 chip, antibody injected at 125nM~7.8nM; conditions: remark: other sources report otherwise

B1: FC05 (antibody)
chain 1: EVQLLEQSGAEVKKPGASVRVSCKVSGYTLPEVAMHWVRQAPGKGLEWMGGFDPEDGETIYAQKFQGRVTMTEDTSTDTAYMELSSLRSEDTAVYYCATTTPFSSSFWFDPWGQGTLVTVSS
chain 2: QSVLTQAPSVSGAPGQKVTISCSGSSSNIGNNYVSWYQQLPGTAPKLLIYDNNKRPSGIPDRFSGSKSGTSATLGITGLQTGDEADYYCGTWDSSLSAVVFGGGTKLTVL
抗体滴度 (dilution 1:x from 1mg/mL) [1]: 320000
Kd [2]: 0.1 nM
